Experimental data as given in patent US20190160148A1, “COMBINATION OF PEMBROLIZUMAB AND ABEMACICLIB FOR THE TREATMENT OF CANCER” (Eli Lilly and Company, priority 2016, published 2019).

How the values were obtained:
CT26 syngeneic tumors = assay: CT26 syngeneic tumor growth, concurrent dosing; type: in vivo, Balb/C mice; details: day 24; abemaciclib 50 mg/kg for 21 days; 178G7 500 μg/dose 1 time per week, 3 doses; versus vehicle
Description: CT26 is also a well-known model for immunotherapy. Studies have shown it to be sensitive to inhibitors of a co-inhibitory immune checkpoint including, CTLA-4, PD-1, PD-L1 blockade. Established sensitivity of CT26, and well known range of therapeutic efficacy of immunotherapeutic intervention make it an appropriate model for screening the activity of checkpoint immunotherapies (Grosso and Jure-Kunkel, Cancer Immunity Vol. 13, p. 5, January 2013) (Duraiswamy et al, Cancer Research, Jun. 15, 2013 73; 3591).
CT26 is a murine model, and accordingly, antibodies used in the CT26 model must bind the mouse target protein. […]
Relative changes in tumor volume compared to control are analyzed at day 24, at the point where the most animals remained in all groups for proper statistical comparison. Relative changes in tumor volume (% ΔT/C) are calculated using the formula % ΔT/C=100×ΔT/ΔC, whereby T=mean tumor volume of the compound treated group, ΔT=mean tumor volume of the compound treated group minus the mean tumor volume on the baseline day, C=mean tumor volume of the control (vehicle) group, and ΔC=mean tumor volume of the control group minus the mean tumor volume on the baseline day. […]

PD-L1/PD-1 interaction = PD-L1/PD-1 interaction (Mus musculus, UniProt Q9EP73); assay: Blockade of PD-1 binding to PD-L1; details: anti-murine PD-L1 clone
PD-L1/PD-1 interaction, sequence (Q9EP73 19-290): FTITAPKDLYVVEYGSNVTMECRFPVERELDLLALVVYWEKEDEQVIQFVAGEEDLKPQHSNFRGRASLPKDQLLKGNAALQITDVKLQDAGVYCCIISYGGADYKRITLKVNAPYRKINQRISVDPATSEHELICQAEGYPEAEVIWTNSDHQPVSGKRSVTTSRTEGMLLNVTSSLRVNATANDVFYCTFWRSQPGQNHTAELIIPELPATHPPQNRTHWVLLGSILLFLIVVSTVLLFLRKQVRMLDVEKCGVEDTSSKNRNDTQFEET
Description: CT26 is a murine model, and accordingly, antibodies used in the CT26 model must bind the mouse target protein. To model co-inhibitory immune checkpoint therapy, in particular blockade of PD-L1/PD-1 mediated inhibition, anti-murine PD-L1 clone, 178G7 (Known herein in the examples as: anti-PD-L1 antibody or anti-PD-L1 therapy or anti-PD-L1), is produced. The HC of 178G7 is SEQ ID NO: 11, and the LC of 178G7 is SEQ ID NO: 12. […] In particular, 178G7 is used as a a surrogate agents that prevent PD-1 mediated inhibition by PD-L1. as both 178G7 and pembrolizumab block the interaction of PD-1 and PD-L1. 178G7 competes with previously identified surrogate antibody 10F.9G2 known to block PD-L1/PD-1 interaction and is a known surrogate for anti-human antibodies in the clinic (Eppihimer et al. Microcirculation 2002:9(2):133).

CCN1CCN(Cc2ccc(Nc3ncc(F)c(-c4cc(F)c5nc(C)n(C(C)C)c5c4)n3)nc2)CC1 [abemaciclib, [5-(4-ethyl-piperazin-1-ylmethyl)-pyridin-2-yl]-[5-fluoro-4-(7-fluoro-3-isopropyl-2-methyl-3H-benzoimidazol-5-yl)-pyrimidin-2-yl]-amine]
%T/C (relative change in tumor volume compared to control) (CT26 syngeneic tumors): 22.3%

B1: Anti-PD-L1 antibody: anti-murine PD-L1 clone 178G7, HC SEQ ID NO: 11, LC SEQ ID NO: 12; surrogate that blocks PD-1/PD-L1 interaction (antibody)
heavy: QVQLQQSGADLAKPGSSVKISCKASGYNFNSYYINWIKQTTGQGLEYIGYINTVSGTTKYSEKFKGKATLTVDKSSSTAFMQLSSLTPDDSAVYYCARGTIVLDDYWGQGVKVTVSSAETTAPSVYPLAPGTALKSNSMVTLGCLVKGYFPEPVTVTWNSGALSSGVHTFPAVLQSGLYTLTSSVTVPSSTWPSQTVTCNVAHPASSTKVDKKIVPRNCGGDCKPCICTGSEVSSVFIFPSKPKDVLTITLTPKVTCVVVDISQDDPEVHFSWFVDDVEVHTAQTRPPEEQFNSTFRSVSELPILHQDWLNGRTFRCKVTSAAFPSPIEKTISKPEGRTQVPHVYTMSPTKEEMTQNEVSITCMVKGFYPPDIYVEWQMNGQPQENYKNTPPTMDTDGSYFLYSKLNVKKEKWQQGNTFTCSVLHEGLHNHHTEKSLSHSPGK
light: DIVMTQTPSSQAVSAGEKVTMSCKSSQSLLYNEKKKNYLAWYQQKPGQSPKLLIYWASTRESGVPDRFLGSGSGTDFTLTINSVQAEDLAVYYCQQSYDFPRTFGGGTKLELKRADAAPTVSIFPPSTEQLATGGASVVCLMNNFYPRDISVKWKIDGTERRDGVLDSVTDQDSKDSTYSMSSTLSLTKADYESHNLYTCEVVHKTSSSPVVKSFNRNEC
blocking of PD-1 binding to PD-L1 (PD-L1/PD-1 interaction): blocks PD-1 binding to PD-L1 | %T/C (relative change in tumor volume compared to control) (CT26 syngeneic tumors): 56.1%
